Laboratory results as given in patent US20250296959A1, “B7-H3 TARGETING PEPTIDES AND CONSTRUCTS THEREOF” (Mariana Oncology Inc., priority 2024, published 2025).
Starred links: 1 amine or outer side, 2 acyl side, 3 side chain; linkers in the order of their positions; H or OH if unused. Positions of bridges follow the written chain, without caps; N, C: chain ends. Non-standard residues stand in square brackets, D forms with d. Groups on a side chain read outwards from the residue. Primed or numbered codes have the meaning given here. *: point of attachment. R‑DOTAGA = O=C(O)CN1CCN(CC(=O)O)CCN([C@H](CCC(=O)*)C(=O)O)CCN(CC(=O)O)CC1; Ala(piperidin-4-yl) = O=C([C@H](CC1CCN([*:3])CC1)N[*:1])[*:2]; (2S,3S)βMePhe = C[C@@H](c1ccccc1)[C@H](N[*:1])C(=O)[*:2]; DOTA = O=C(O)CN1CCN(CC(=O)O)CCN(CC(=O)*)CCN(CC(=O)O)CC1; Phe(4-NHCONH2) = NC(=O)Nc1ccc(C[C@H](N)C(=O)O)cc1; PipAla = piperidinyl-alanine residue (as named); Trp(5-F) = N[C@@H](Cc1c[nH]c2ccc(F)cc12)C(=O)O; hydroxyVal = hydroxy-valine residue (as named); PEG4′ = 4x 3-(2-aminoethoxy)propanoic acid; hCba = O=C([C@H](CCC1CCC1)N[*:1])[*:2]; γGlu = O=C(O)[C@H](CCC(=O)[*:2])N[*:1]; 1Nal = N[C@@H](Cc1cccc2ccccc12)C(=O)O; Ala(4-THP) = N[C@@H](CC1CCOCC1)C(=O)O; Pip(CH2CO2H)Ala = not defined here; Val(3-OH) = CC(C)(O)[C@H](N)C(=O)O; hCha = N[C@@H](CCC1CCCCC1)C(=O)O; Cha = N[C@@H](CC1CCCCC1)C(=O)O; Tle = CC(C)(C)[C@H](N)C(=O)O; hLeu = CC(C)CC[C@H](N)C(=O)O; Dab = NCC[C@H](N)C(=O)O; Ms = CS(=O)(=O)*; Sar = CNCC(=O)O

B1: Cpd 501 (peptide)
peptide: Ac-[hLeu]YC[Tle]G[PipAla][Ala(4-THP)]DVYC[Trp(5-F)][(2S,3S)βMePhe][Val(3-OH)][dK]([dE-DOTA])-OH
modifications: disulfide 3-11 (inferred)
B2: Cpd 227 (peptide)
peptide: Ac-[hLeu]YCVG[Ala(piperidin-4-yl)][Cha]DVYC[Trp(5-F)]F[Val(3-OH)][dK](DOTA)-NH2
modifications: disulfide 3-11 (inferred)
B3: Cpd 499 (peptide)
peptide: Ac-[hLeu]YC[Tle]G[PipAla](CH2COOH)[Ala(4-THP)]DV[Phe(4-NHCONH2)]C[Trp(5-F)][(2S,3S)βMePhe][Val(3-OH)][dK](DOTA)-OH
modifications: disulfide 3-11 (inferred)
B4: Cpd 433 (peptide)
peptide: Ac-[hLeu]YC[Tle]G[PipAla][Ala(4-THP)]DVYCX[(2S,3S)βMePhe][hydroxyVal][dK](DOTA)-OH
modifications: disulfide 3-11 (inferred); not fully specified (residue 12); printed as Ac-hLeu-Y-C-Tbg-G-PipAla-ThpA-D-V-Y-C-5FW-[(2S, 3S)beta-Me-Phe]-hydroxyVal-dLys(DOTA)-COOH, disulfide
B5: Cpd 464 (peptide)
peptide: Ac-[hLeu]YC[Tle]G[PipAla][Ala(4-THP)]DVYC[Trp(5-F)]F[hydroxyVal][dK]([hGlu-DOTA])-OH
modifications: disulfide 3-11 (inferred)
B6: Cpd 407 (peptide)
peptide: Ac-[hLeu]YC[Tle]G[Pip(PEG4-DOTA)Ala][Ala(4-THP)]DVYC[Trp(5-F)]F[Val(3-OH)][dS]-NH2
modifications: disulfide 3-11 (inferred)
B7: Cpd 427 (peptide)
peptide: Ac-[hLeu]YC[Tle]G[PipAla][Ala(4-THP)]DV[Phe(4-NHCONH2)]CXF[hydroxyVal][dK](DOTA)-OH
modifications: disulfide 3-11 (inferred); not fully specified (residue 12); printed as Ac-hLeu-Y-C-Tbg-G-PipAla-ThpA-D-V-Aph(Cbm)-C-5FW-F-hydroxyVal-dLys(DOTA)-COOH, disulfide
B8: Cpd 339 (peptide)
peptide: Ac-[hLeu]YC[Tle]G[PipAla](CH2CO2H)[Ala(4-THP)]DVYC[Trp(5-F)]F[Val(3-OH)][dK](DOTA)-OH
modifications: disulfide 3-11 (inferred)
B9: Cpd 497 (peptide)
peptide: Ac-[hLeu]YC[Tle]G[PipAla](CH2COOH)[Ala(4-THP)]DVYC[Trp(5-F)][(2S,3S)βMePhe][Val(3-OH)][dK](DOTA)-OH
modifications: disulfide 3-11 (inferred)
B10: Cpd 408 (peptide)
peptide: Ac-[hLeu]YC[Tle]GK[Pip(PEG4-DOTA)Ala]DVYC[Trp(5-F)]F[Val(3-OH)][dS]-NH2
modifications: disulfide 3-11 (inferred)
B11: Cpd 340 (peptide)
peptide: Ac-[hLeu]YC[Tle]G[Ala(piperidin-4-yl)][Ala(4-THP)]DVYC[Trp(5-F)]F[Val(3-OH)][dK](DOTA)-OH
modifications: disulfide 3-11 (inferred)
B12: Cpd 385 (peptide)
peptide: Ac-[hLeu]YC[Tle]GK[Pip(PEG4-DOTA)Ala]DVYC[Trp(5-F)]F[Val(3-OH)][dA]-NH2
modifications: disulfide 3-11 (inferred)
B13: Cpd 436 (peptide)
peptide: Ac-[hLeu]YC[Tle]G[PipAla][Ala(4-THP)]DVYC[1Nal]F[hydroxyVal][dK](DOTA)-OH
modifications: disulfide 3-11 (inferred)
B14: Cpd 438 (peptide)
peptide: Ac-[hLeu]YC[Tle]G[PipAla][Ala(4-THP)]DVYCXF[hydroxyVal][dK](R‑DOTAGA)-OH
modifications: disulfide 3-11 (inferred); not fully specified (residue 12); printed as Ac-hLeu-Y-C-Tbg-G-PipAla-ThpA-D-V-Y-C-5FW-F-hydroxyVal-dLys(R-DOTAGA)-COOH, disulfide
B15: Cpd 368 (peptide)
peptide: Ac-[hCha]YC[Tle]GK[Ala(4-THP)]DVYC[Trp(5-F)]F[Val(3-OH)][dK](DOTA)-OH
modifications: disulfide 3-11 (inferred)
B16: Cpd 437 (peptide)
peptide: Ms-[hLeu]YC[Tle]G[PipAla][Ala(4-THP)]DVYCXF[hydroxyVal][dK](DOTA)-OH
modifications: disulfide 3-11 (inferred); not fully specified (residue 12); printed as MeSO2-hLeu-Y-C-Tbg-G-PipAla-ThpA-D-V-Y-C-5FW-F-hydroxyVal-dLys(DOTA)-COOH, disulfide
B17: Cpd 371 (peptide)
peptide: Ac-[hLeu]YC[Tle]G[Dab][Ala(4-THP)]DVYC[Trp(5-F)]F[Val(3-OH)][dK](DOTA)-OH
modifications: disulfide 3-11 (inferred)
B18: Cpd 318 (peptide)
peptide: Ac-[hLeu]YCIG[Pip(CH2CO2H)Ala][Ala(4-THP)]DVYC[Trp(5-F)]F[Val(3-OH)][dK](DOTA)-OH
modifications: disulfide 3-11 (inferred); reading uncertain; also: printed as Ac-hLeu-Y-C-Ile-G-[Pip(CH2CO2H)Ala]-ThpA-D-V-Y-C-5FW-F-hydroxyVal-dLys(DOTA)-COOH; disulfide
B19: Cpd 496 (peptide)
peptide: Ac-[hLeu]YC[Tle]G[PipAla](CH2COOH)[PipAla]([PEG4′-DOTA])DVYC[Trp(5-F)][(2S,3S)βMePhe][Val(3-OH)][dE]-NH2
modifications: disulfide 3-11 (inferred)
B20: Cpd 429 (peptide)
peptide: Ac-[hLeu]YC[Tle]G[PipAla][Ala(4-THP)]DVYCXF[hydroxyVal][dK]([dE-DOTA])-OH
modifications: disulfide 3-11 (inferred); not fully specified (residue 12); printed as Ac-hLeu-Y-C-Tbg-G-PipAla-ThpA-D-V-Y-C-5FW-F-hydroxyVal-dLys(dGlu-DOTA)-COOH, disulfide
B21: Cpd 410 (peptide)
peptide: Ac-[hLeu]YC[Tle]GK[Pip(PEG4-DOTA)Ala]DVYC[Trp(5-F)]F[Val(3-OH)][dE]-NH2
modifications: disulfide 3-11 (inferred)
B22: Cpd 440 (peptide)
peptide: Ac-[hLeu]YC[Tle]G[PipAla][Ala(4-THP)]DVYCXF[hydroxyVal][dK]([γGlu-DOTA])-OH
modifications: disulfide 3-11 (inferred); not fully specified (residue 12); printed as Ac-hLeu-Y-C-Tbg-G-PipAla-ThpA-D-V-Y-C-5FW-F-hydroxyVal-dLys(gGlu-DOTA)-COOH, disulfide
B23: Cpd 338 (peptide)
peptide: Ac-[hLeu]YC[Tle]GK(DOTA)[Ala(4-THP)]DVYC[Trp(5-F)]F[Val(3-OH)]-NH2
modifications: disulfide 3-11 (inferred)
B24: Cpd 398 (peptide)
peptide: Ac-[hCba]YC[Tle]GK[Ala(4-THP)]DVYC[Trp(5-F)]F[Val(3-OH)][dK](DOTA)-OH
modifications: disulfide 3-11 (inferred)
B25: Cpd 383 (peptide)
peptide: Ac-[hLeu]YC[Tle]GK[Pip(PEG4-DOTA)Ala]DVYC[Trp(5-F)]F[Val(3-OH)]-NH2
modifications: disulfide 3-11 (inferred)
B26: Cpd 428 (peptide)
peptide: Ac-[hLeu]YC[Tle]G[PipAla][Ala(4-THP)]DVYCXF[hydroxyVal][dK]([Glu-DOTA])-OH
modifications: disulfide 3-11 (inferred); not fully specified (residue 12); printed as Ac-hLeu-Y-C-Tbg-G-PipAla-ThpA-D-V-Y-C-5FW-F-hydroxyVal-dLys(Glu-DOTA)-COOH, disulfide
B27: Cpd 366 (peptide)
peptide: Ac-[hLeu]YC[Tle]GK[Ala(4-THP)]DVYC[Trp(5-F)]F[Val(3-OH)][dK](DOTA)-NH2
modifications: disulfide 3-11 (inferred)
B28: Cpd 348 (peptide)
peptide: Ac-[hLeu]YC[Tle][Sar]K[Ala(4-THP)]DVYC[Trp(5-F)]F[Val(3-OH)][dK](DOTA)-OH
modifications: disulfide 3-11 (inferred)
B29: Cpd 384 (peptide)
peptide: Ac-[hLeu]YC[Tle]G[Pip(PEG4-DOTA)Ala][Ala(4-THP)]DVYC[Trp(5-F)]F[Val(3-OH)][dA]-NH2
modifications: disulfide 3-11 (inferred)
B30: Cpd 465 (peptide)
peptide: Ac-[hLeu]YC[Tle]G[PipAla][Ala(4-THP)]DVYC[Trp(5-F)]F[hydroxyVal][dK]([PEG4′-DOTA])-OH
modifications: disulfide 3-11 (inferred)

These binders were tested against B7-H3 on Calu-6 cells (human) (UniProt Q5ZPR3) (assay: 177Lu-labelled peptide on Calu-6 cells, % cell associated fraction; C = >50%).

% cell associated fraction [%] | Binder
> 50 | B1
> 50 | B2
> 50 | B3
> 50 | B4
> 50 | B5
> 50 | B6
> 50 | B7
> 50 | B8
> 50 | B9
> 50 | B10
> 50 | B11
> 50 | B12

These binders were tested against B7-H3 on Calu-6 cells (human) (UniProt Q5ZPR3) (assay: 177Lu-labelled peptide on Calu-6 cells, % cell associated fraction; B = 25<%<=50).

% cell associated fraction [%] | Binder
25 to 50 | B13
25 to 50 | B14
25 to 50 | B15
25 to 50 | B16
25 to 50 | B17
25 to 50 | B18
25 to 50 | B19
25 to 50 | B20
25 to 50 | B21
25 to 50 | B22
25 to 50 | B23
25 to 50 | B24
25 to 50 | B25
25 to 50 | B26
25 to 50 | B27
25 to 50 | B28
25 to 50 | B29
25 to 50 | B30
